In article doi:10.1101/459487 (bioRxiv, 2018):

Tests used:
[1] = biological target: full-length GST-EFCAB9 (mouse) (mouse, UniProt Q9DAM2 1-216); experiment: pull-down
[2] = biological target: GST-EFCAB9^Mut2 (D72N/E160Q) (mouse, UniProt Q9DAM2 1-216, D72N | E160Q); experiment: pull-down
Sequence of GST-EFCAB9^Mut2 (D72N/E160Q) (Q9DAM2 whole entry D72N/E160Q): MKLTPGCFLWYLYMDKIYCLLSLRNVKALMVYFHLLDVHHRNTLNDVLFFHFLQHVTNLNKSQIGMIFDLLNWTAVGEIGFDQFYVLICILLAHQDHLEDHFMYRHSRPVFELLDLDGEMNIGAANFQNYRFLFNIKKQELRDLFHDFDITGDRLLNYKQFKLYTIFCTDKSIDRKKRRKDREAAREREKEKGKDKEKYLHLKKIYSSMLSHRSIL

Sequence of full-length GST-EFCAB9 (mouse) (Q9DAM2 whole entry): as the sequence (Q9DAM2 whole entry D72N/E160Q) above, with N72D, Q160E counted along it

B1: 6xHis-tagged mouse CatSperζ fused to GB1 (natural protein)
chain: MEESVKPVPKHANHRRSSVRSSLYGDVRDLWSTATMSTANVSVSDVCEDFDEEGKSVRNRIRKYSQTISIRDSLNLEPEEIQQQARRELELCHGRSLEHGEDHEESETSLASSTSESLIFSLWKPHRTYWTEQQNRLPLPLMELMETEVLDILKKALITYRSTIGRNHFMTKELQGYIEGIRKRRNKRLYFLDQ
- binding result [1]: binds
- binding result [2]: binds
